Assay results from article PMC7508745.

Biological target: Skp(S126C) (UniProt P0AEU7)
Assay: SEC; HiLoad 16/600 Superdex 200 pg; NMR buffer (20 mM MES, pH 6.5, 150 mM NaCl, 1 mM DTT); refolded protein eluted at 79 mL

Skp(S126C) (from UniProt P0AEU7 21-161) (natural protein)
stoichiometry N: 3
